# Data taken from patent US20090208538A1.
# What was measured:
# HLA-A*0201 (human) [1] = test: iTopia affinity
# HLA-A*0201 (human) [2] = test: iTopia binding
# HLA-A*0201 (human) [3] = test: iTopia net score
substance,measurement,setting,value
cdr2 246-254 RALELEAV (peptide),ED50,HLA-A*0201 (human) [1],1000 nM
same,binding vs positive control,HLA-A*0201 (human) [2],> 30%
same,iScore,HLA-A*0201 (human) [3],0.352
